Source: patent US11229713B2, “Methods and compositions for 18F-radiolabeling of biologics” (BRISTOL-MYERS SQUIBB COMPANY, priority 2014, dated 2022)

B1: ^18F-radiolabeled A02: ^18F-radiolabeled PD-L1 Adnectin A02 (SEQ ID NO: 2) produced as described in Example 9 (conjugate)
chain: EVVAATPTSLLISWSYDGPIDRYYRITYGETGGNSPVQEFTVPPDQKTATISGLKPGVDYTITVYAVRLEEAHYNREFPISINYRTPC
modifications: PEG4-DBCO linker, 18F-FPPEGA label; Synthetic 18F-radiolabeled PD-L1 Adnectin, A02
B2: A02 adnectin: anti-PD-L1 Adnectin, SEQ ID NO: 2, cold (unlabeled) (protein)
chain: EVVAATPTSLLISWSYDGPIDRYYRITYGETGGNSPVQEFTVPPDQKTATISGLKPGVDYTITVYAVRLEEAHYNREFPISINYRTPC
modifications: Synthetic 18F-radiolabeled PD-L1 Adnectin, A02

Key:
[1] = target: T1, PD-L1 (Homo sapiens, UniProt Q9NZQ7); test: Ex vivo tissue biodistribution by gamma counter in xenograft-bearing mice; design: introducing 1×10^6 PD-L1(+) L2987 human lung carcinoma cells; endogenous in cells; host or cells: L2987 human lung carcinoma xenografts grown subcutaneously in mice
Protocol: For some studies, animals were sacrificed via cervical dislocation immediately following imaging. Necropsy was then performed on the animals, and individual tissues were collected (blood, heart, lung, liver, spleen, kidney, muscle, stomach, bone, L2987 tumor, and HT-29 tumor) into pre-weighed tubes. All tissues were then weighed again to determine the weight of each tissue. The radioactivity in each tissue was then directly measured ex vivo using a Perkin-Elmer Wizard3 gamma counter. For all tissues, measured values in counts per minute (CPM) were normalized to the injected radioactive dose for the individual animals and corrected for radioactive decay.

[2] = target: T1, PD-L1; test: microPET imaging of mice bearing bilateral PD-L1(+) L2987 and PD-L1(−) HT-29 xenografts; type: in vivo; design: introducing 1×10^6 PD-L1(+) L2987 human lung carcinoma cells; endogenous in cells; host or cells: L2987 human lung carcinoma xenografts grown subcutaneously in mice; settings: co-injected with 3 mg/kg unlabeled A02 Adnectin, 1 hour 50 minutes - 2 h post injection
Excerpt: Mice bearing bilateral xenograft tumors were produced by introducing 1×10^6 PD-L1(+) L2987 human lung carcinoma cells and 1.5×10^6 PD-L1(−) HT-29 human colon carcinoma cells subcutaneously on opposite sides of the mouse. Once tumors reached approximately 300 mm^3 (approximately 2-3 weeks after cell implantation) animals were selected for imaging. For imaging, animals were placed under anesthesia with 2% isoflurane and tail vein catheters were installed. Mice were then placed into a custom animal holder with capacity for 4 animals, where they remained under anesthesia for the duration of the study. The animal holder was transferred to the microPET® F120™ scanner (Siemens Preclinical Solutions, Knoxville, Tenn.). […]
Following the transmission scan, radiotracer solutions were administered via the previously installed tail vein catheters and a 2 hour emission image was acquired. […] Exact injected doses were calculated by taking direct measurement of the formulated dose and subtracting the radioactivity remaining in the syringe and the tail vein catheter.
In the final images, regions of interest (ROIs) were drawn around the tumor boundary using ASIPro software (Siemens Preclinical Solutions). Time-activity curves were calculated for each ROI to yield a quantitative view of radiotracer within the tumor volume over the course of the 2 hour emission image. […]

[3] = target: T1, PD-L1; test: In vitro autoradiography blocking study in human lung tumor and xenograft tissue sections; design: PD-L1-positive L2987 human lung carcinoma cells or PD-L1-negative HT-29 human colorectal adenocarcinoma cells; endogenous in cells; host or cells: L2987 human lung carcinoma cells (HT-29 as PD-L1-negative control); settings: A02 0.025-25 nM, non-PD-L1 binding adnectin 25 nM, 1 hour room temperature
Protocol: Human lung tumor tissues were embedded in OCT and chilled in 2-methylbutane for 2-5 minutes until frozen. The samples were stored in −80° C. degree freezer until use. Human xenograft tissues were also included in the assay. Mice bearing bilateral xenografts were produced by introducing 4×10^6 PD-L1(+) L2987 cells and 1.5×10^6 PD-L1(−) HT-29 t cells subcutaneously into opposite flanks of nu/nu mice. Once resulting xenograft tumors reached appropriate size (approx. 200-300 mm^3) mice were anesthetized with 2% isoflurane and sacrificed via cervical dislocation. Fresh tumor tissues were excised, immersed into OCT and chilled in 2-methylbutane for 2-5 minutes until frozen. The tissues were then wrapped in foil/ZIPLOC® bag and stored at −80° C. until use. For all tissues (human lung tumor and xenografts) sections of 5 μm thickness (collected as 2 sections/slide) were cut using a cryostat, thaw-mounted on glass microscope slides, and allowed to air dry for approximately 30 minutes.
Blocking studies with cold (unlabeled) A02 adnectin at 0.025 nM, 0.25 nM, 2.5 nM and 25 nM respectively and 25 nM non-PD-L1 binding adnectin were conducted using the following conditions. […] Autoradiography signal from tissue-associated radioactivity was quantified from these ROIs.

T1 sequence (Q9NZQ7 19-290): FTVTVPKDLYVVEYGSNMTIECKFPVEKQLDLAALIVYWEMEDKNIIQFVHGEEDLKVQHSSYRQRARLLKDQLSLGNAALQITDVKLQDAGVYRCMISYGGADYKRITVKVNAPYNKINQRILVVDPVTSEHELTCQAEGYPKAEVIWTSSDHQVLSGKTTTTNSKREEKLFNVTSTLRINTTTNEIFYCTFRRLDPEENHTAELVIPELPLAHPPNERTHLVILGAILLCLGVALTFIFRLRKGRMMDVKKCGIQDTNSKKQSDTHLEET

| Molecule | tissue with higher uptake than the PD-L1(+) tumor ([1]; ex vivo gamma counter) | uptake in PD-L1(+) L2987 xenografts compared to PD-L1(−) HT-29 xenografts, ex vivo ([1]; necropsy immediately after imaging, gamma counter) | radiotracer uptake in PD-L1(+) L2987 xenografts relative to PD-L1(−) HT-29 xenografts, blocked [2] [×] | displacement / blockade of 0.25 nM ^18F-A02 adnectin radioligand compared to total binding [3] |
| --- | --- | --- | --- | --- |
| B1 | kidney | clear differential uptake | 1.04 |  |
| B2 |  |  |  | dose dependent displacement |
